Measurements as given in patent US6974863 (INDIANA UNIVERSITY RESEARCH AND TECHNOLOGY, dated 2005).

Key:
[1] = target: 4-1BB-AP binding sites (putative cell-surface 4-1BB ligand) on mature B cells and macrophages; assay: competition on A20 cells: 20 µg/ml rs4-1BB (50 fold excess) before 4-1BB-AP at 375 ng/ml as competitor; AP activity
[2] = target: T1, human vitronectin (human, UniProt P04004 20-478); assay: ELISA, human vitronectin immobilized on microtiter plates, AP activity (data not shown)
T1 construct: Bought protein
T1 sequence (P04004 20-478 limits assumed): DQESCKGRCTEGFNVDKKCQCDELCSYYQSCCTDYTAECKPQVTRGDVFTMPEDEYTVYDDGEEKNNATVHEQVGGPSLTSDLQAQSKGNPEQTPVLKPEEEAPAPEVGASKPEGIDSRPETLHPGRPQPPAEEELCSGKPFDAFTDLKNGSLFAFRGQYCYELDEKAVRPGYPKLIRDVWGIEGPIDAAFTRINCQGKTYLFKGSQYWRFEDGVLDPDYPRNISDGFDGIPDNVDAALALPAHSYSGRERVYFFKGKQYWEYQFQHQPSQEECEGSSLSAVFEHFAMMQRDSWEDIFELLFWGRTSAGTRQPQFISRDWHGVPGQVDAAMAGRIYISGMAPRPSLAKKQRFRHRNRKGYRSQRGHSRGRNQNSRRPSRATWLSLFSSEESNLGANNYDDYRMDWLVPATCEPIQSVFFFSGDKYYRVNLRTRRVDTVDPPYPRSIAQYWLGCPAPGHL
Description: Chalupny and colleagues (132) have proposed that 4-1BB Rg, a fusion protein consisting of the extracellular domain of 4-1BB and the Fc region of human IgG, bound to the extracellular matrix (ECM). The highest levels of 4-1BB Rg binding was to human vitronectin. In data not shown, an ELISA was performed using 4-1BB-AP and human vitronectin (Yelios Pharmaceuticals/GIBCO-BRL, Grand Island, N.Y.) immobilized at 0.007 μg–10 μg per well on microtiter plates. No binding of 4-1BB-AP based on AP activity was observed. To rule out the possibility that 4-1BB-AP was binding to proteins extrinsically attached to the cell surface (possible extracellular matrix components), B-cell lymphomas were washed in acid conditions prior to the binding assay (115). 4-1BB-AP still bound specifically to mature B-cell lymphomas (data not shown). We are currently determining whether a 4-1BB-ligand specifically expressed on B cells and macrophages exists, and whether 4-1BB-AP may bind to the ECM under particular binding conditions. It is possible that the ECM could facilitate the binding of 4-1BB to a specific cell-surface ligand.

[3] = target: T2, mutated p56lck, construct C1 (cys 20-ser) (murine, UniProt P06240 2-509); assay: coimmunoprecipitation with 53A2, in vitro kinase labeling, HeLa cells
T2 construct: Expressed in HeLa cells with the vaccinia T7 system; also called mutant p56^lck C1
T2 sequence (P06240 other isoform, or with tags, fused parts or gaps limits assumed, change not shown): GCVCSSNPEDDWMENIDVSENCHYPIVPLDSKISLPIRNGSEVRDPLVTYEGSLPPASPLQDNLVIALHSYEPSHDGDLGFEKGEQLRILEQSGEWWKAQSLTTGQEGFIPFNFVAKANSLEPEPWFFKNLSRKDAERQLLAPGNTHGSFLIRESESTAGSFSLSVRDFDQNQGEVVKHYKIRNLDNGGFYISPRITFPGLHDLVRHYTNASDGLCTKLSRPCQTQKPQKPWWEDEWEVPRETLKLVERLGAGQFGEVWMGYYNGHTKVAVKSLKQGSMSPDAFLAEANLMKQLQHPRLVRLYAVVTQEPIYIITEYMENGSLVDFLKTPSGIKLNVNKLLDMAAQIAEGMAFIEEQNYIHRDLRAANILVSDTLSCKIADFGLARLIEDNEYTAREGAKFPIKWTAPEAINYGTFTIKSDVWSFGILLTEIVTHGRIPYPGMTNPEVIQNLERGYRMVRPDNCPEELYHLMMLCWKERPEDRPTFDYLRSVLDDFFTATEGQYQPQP
From the text: (§1) High levels of coexpression have been achieved previously with this system to facilitate interactions between CD4 and p56^lck. To ensure consistent expression of 4-1BB, the transfected HeLa cells were briefly labeled with [^35S] cysteine before harvest. 4-1BB expression was monitored by immunoprecipitation of ^35S-labeled 4-1BB with 53A2.
(§2) FIGS. 32a–c show an analysis of the association of 4-1BB and p56^lck HeLa cells. […] Lysates were immunoprecipitated with antibodies to p56^lck and 4-1BB and labeled with [γ-^32P] ATP by the in vitro kinase reaction. The positions of p56^lck and 4-1BB are indicated to the right. Total HeLa celll lysates were immunoblotted with antibody top56^lck assay thep56^lck expression. FIGS. 32b and 32c show an immune complex kinase assay. Aliquots of the saline lysates were immunoprecipitated with antip56^lck serum (FIG. 32b) or 53A2 (FIG. 32c) followed by the in vitro kinase reaction with [γ-^32P] ATP as described in the legend to FIG. 30. […] HeLa celis were grown to 80% confluency on 100-mm petri dishes in DMEM containing 10% FBS and antibiotics. Cells were infected with 1×10^8 pfu of vaccinia virus expressing T7 RNA polymerase (136) 30 min before transfection. DNA was transfected in liposomes (Lipofectin, GIBCO, BRL). 15 μg DNA and 50 μl liposome diluted into 5 ml serum-free DMEM were incubated in 12×75 mm polystyrene tubes at room temperature for 15 min. […]

[4] = target: T3, mutated p56lck, construct C2 (cys 23-ser) (murine, UniProt P06240 2-509); assay: as above
T3 construct: Expressed in HeLa cells with the vaccinia T7 system; also called mutant p56^lck C2
T3 sequence (P06240 other isoform, or with tags, fused parts or gaps limits assumed, change not shown): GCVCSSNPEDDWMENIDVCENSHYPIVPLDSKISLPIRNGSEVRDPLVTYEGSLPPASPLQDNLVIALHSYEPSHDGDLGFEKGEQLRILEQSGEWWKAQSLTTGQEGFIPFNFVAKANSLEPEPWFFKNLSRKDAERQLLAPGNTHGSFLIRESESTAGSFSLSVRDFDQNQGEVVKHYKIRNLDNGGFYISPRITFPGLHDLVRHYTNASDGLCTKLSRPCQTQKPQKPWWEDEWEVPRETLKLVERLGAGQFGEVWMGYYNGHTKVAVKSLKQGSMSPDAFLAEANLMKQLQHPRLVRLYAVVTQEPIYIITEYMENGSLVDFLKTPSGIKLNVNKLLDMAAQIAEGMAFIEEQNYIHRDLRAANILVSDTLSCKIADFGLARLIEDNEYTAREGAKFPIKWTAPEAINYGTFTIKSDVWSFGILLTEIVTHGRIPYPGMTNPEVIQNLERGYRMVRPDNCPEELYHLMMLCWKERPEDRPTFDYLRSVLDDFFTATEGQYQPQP
From the text: as §1, §2

recombinant soluble 4-1BB protein (extracellular domain of mouse 4-1BB) (from UniProt P20334 24-187) (receptor)
percent of 4-1BB-AP binding blocked [1]: 70%

B1: 4-1BB-AP fusion protein (extracellular domain of 4-1BB fused to human placental alkaline phosphatase) (other)
chain: VQNSCDNCQPGTFCRKYNPVCKSCPPSTFSSIGGQPNCNICRVCAGYFRFKKFCSSTHNAECECIEGFHCLGPQCTRCEKDCRPGQELTKQGCKTCSLGTFNDQNGTGVCRPWTNCSLDGRSVLKTGTTEKDVVCGPPVVSFSPSTTISVTPEGGPGGHSLQVL
notes: Signal peptide and entire extracellular domain of 4-1BB up to the first hydrophobic residue of the transmembrane region, joined in frame upstream of AP; secreted by NIH-3T3 transfectants; also called 4-1BB-Alkaline Phosphatase; 85 kDa fusion protein; not shown: human placental alkaline phosphatase as coded in the APtag-1 vector
binding result [2]: no binding (tested: 0.007 µg-10 µg per well)

B2: mouse receptor protein 4-1BB (full length) (receptor)
chain: VQNSCDNCQPGTFCRKYNPVCKSCPPSTFSSIGGQPNCNICRVCAGYFRFKKFCSSTHNAECECIEGFHCLGPQCTRCEKDCRPGQELTKQGCKTCSLGTFNDQNGTGVCRPWTNCSLDGRSVLKTGTTEKDVVCGPPVVSFSPSTTISVTPEGGPGGHSLQVLTLFLALTSALLLALIFITLLFSVLKWIRKKFPHIFKQPFKKTTGAAQEEDACSCRCPQEEEGGGGGYEL
notes: Native on T cells (CTLL-R8, CTLL-2, F1, splenic T cells, thymocytes) or recombinant full length in Sf-21 and HeLa cells; also tested in lysates and blots; Seen as 30 kDa monomer, 55 kDa dimer and possibly 110 kDa tetramer; homodimer not proven; also called 4-1BBP; 4-1BBL (full length cDNA construct)
binding result [3]: no binding | binding result [4]: no binding
